In publication doi:10.1101/2025.07.27.667015v3 (biorxiv, 2025) one finds Kd, Km and kcat data, which are given here for three compounds.

For orientation: Kd means the concentration at which binding is half-saturated. As usually defined, the Km is the concentration of substrate that gives half-maximal velocity. As a reminder, the kcat is the number of substrate molecules converted per active site and unit of time at saturation.

Data set [1] addresses yMGL (Yarrowia lipolytica, UniProt Q6CB42, S333A). Description: OpenSPR, protein immobilised on NTA chip. Type of data set: binding.
Data set [2] has as its target yMGL (Yarrowia lipolytica, UniProt Q6CB42). In words: OpenSPR, protein immobilised on NTA chip. Type of data set: binding.
The test system of another data set is CSCC[C@H](N)C(=O)O. Description: purified protein. As to conditions: saturating PLP (5 μM), 50 mM Tris-HCl pH 8.0, 20 °C.

`Cc1ncc(COP(=O)(O)O)c(C=O)c1O` [PLP]: the Kd at yMGL [1] amounted to 942 µM; at yMGL [2] it was 33.1 µM.
Take yMGL (Yarrowia lipolytica CLIB122): in the data set on CSCC[C@H](N)C(=O)O, the Km was found to be 1500 ± 10 µM and the turnover number (kcat) stood at 0.06 ± 0.00 s⁻¹.
With “yMGL-ΔCTD (Yarrowia lipolytica CLIB122; DEL253-380)”, in the data set with CSCC[C@H](N)C(=O)O, the Km stood at 750 ± 10 µM and the kcat amounted to 0.04 ± 0.00 s⁻¹.
